Experimental findings from patent US6815187 are described below.

This data set has as its system syndecan-4 cytoplasmic tail peptide with a phosphorylated Ser (S4c-P).

As for Recombinant PKCα, the “phosphorylation level of the PKCβ1 optimal substrate peptide by PKCα, in the presence of PIP2” value is “the phosphorylation level of the substrate was similar to that obtained with PIP2 alone”.
